Source: paper PMC4830213, “Signaling mechanism by the Staphylococcus aureus two-component system LytSR: role of acetyl phosphate in bypassing the cell membrane electrical potential sensor LytS” (F1000Research, 2016)

Molecular target: phosphorylated receiver domain of LytR (LytR^N-P) (Staphylococcus aureus strain Mu50) (UniProt P60609)
Assay: native gel or EMSA; LytR^N and LytR^N-P (phosphorylated by acetyl phosphate) at 10, 20 and 40 µM on native-PAGE (10% in the methods, 15% in the legend), buffer kept at 4°C, Coomassie stain

How did the stoichiometry N turn out when “phosphorylated receiver domain of LytR (LytR^N-P) (from UniProt P60609 1-134) (domain or fragment)” was run?
Its stoichiometry N is 2.
